Measurements published in the DeepSol protein solubility set.

Test: soluble on expression in E. coli; label from the status in PepcDB or PDB records

Soluble on expression in E. coli, not soluble:
MGSDKIHHHHHHMATVLIVGRPNVGKSTLFNKLVKKKKAIVEDEEGVTRDPVQDTVEWYGKTFKLVDTCGVFDNPQDIISQKMKEVTLNMIREADLVLFVVDGKRGITKEDESLADFLRKSTVDTILVANKAENLREFEREVKPELYSLGFGEPIPVSAEHNINLDTLLETIIKKLEEKGLDLESKPEITDAIKVAIVGRPNVGKSTLFNAILNKERALVSPIPGTTRDPVDDEVFIDGRKYVFVDTAGLRRKSRVEPRTVEKYSNYRVVDSIEKADVVVIVLDATQGITRQDQRIAGLVERRGRASVVVFNKWDLVEHREKRYDEFTKLFREKLYFIDYSPLIFTSADKGWNIDRVIDAINLAYASYTTKVPSSAINSALQKVLAFTNLPRGLKIFFGLQVDIKPPTFLFFVNSIEKVKNPQKIFLRKLIRDYVFPFEGSPIFLKFKRSR
MGSDKIHHHHHHMAVSSLAGLGLRREMLAEFSQSVPAQIDFFEVAPENWMALGGKYGKQFRALTERHAFFCHGLSLSIGSSAPLDIDFIKGIKAFLDLHGIAVYSEHLSYCSGSGHLYDLMPMPFTPEAVRHIAGRVKQVEDIIERPLILENISFYAAPGAQMTELEFVLAVLEEADCQLLLDVNNIYVNSINHNYDAAAYLAAMPTERIRYLHVAGHYVEAPDLIVDTHGADIVDPVWQLLCDCYALHGPLPTLLERDFNIPPIGELLQEIDRIRDYQAAAIRTSRRAG
MGSDKIHHHHHHMAVTDKERKLAATLSDPVLWGQAYLYNRDGSGRDYWPHQVEDLRCPAKNIIHLDGRDVGKSIVLSTDALHYAFTTRGGQGLVAAPHQGHLDTIIEEIEFQLDTNPDLMNSIALTKYGKPKIHRKPYFRLEFTNGSVLYFRPAGAYGDAFRSLHVGRVWVDEGAWLTERAWKALRQCLKAGGTLRIYSTPNGLRDTTYYRLTSSEQFHVFRWPSWLNPLWTEDREAELLEFYGGRDSSGWQHEVAGEHGKPSYGAFNVEQFNLCRQDLLEYQKIVITDSELRDCDTEEAAHDRLEMLLNLTPRSGQFWVGGDLGYTNDPTEIVVFQEMEVGERTLLKMILRVHLEHVSYPHIAQIIALLERYYTPAGIGVDNGGNGLAVVQELLTLDKYKGLELEGRLKGYDFGGMTRLAVRDGKEIKKRTKELMTSLINGALQRKQLIFPSDDLEVEDQFTTHTYTLRDGKIIYSKGNDHIIDAVRCAMLIREEGNLDPVGEEVVSLKPVLTNPVFI
MGSDKIHHHHHHMAYLDNIAVFVRVVELGNLSAAGRDMRISPAVASNRIKELEKHLGVRLFNRTTRQLMPTEHGTVFYSGAKQVLEAITEAEAAVSALSGQPRGTIRVTAPLGLGRRLVASGIPDFHDKYPDIEVRLRLSDHNVDIMKEGIDVAFRLGIIEDSSLRMRGIMECERVLVAAPKYLEARGEPAEPQELIGKKHDCLMLRYSGAREYVWTLQTPTGPQKFEVHGPYDTDDGDVLTGWALSGRGIINKPRFEVEPFIRDRRLQVILANTPPTPVQFAAVYPHKKLQDPKVRLLLDFMAERCQRLIKDILAGK
MGSDKIHHHHHHMAYNDSTKQYQRMLASYTRTGIETAIPGTKEEGIMRYRTMIYTIVNESLSTSYPLTRQLLTAQEWDDTVHRYFSTHACTSPYLWRMPLEFYEYIQEEQSALLIKYPCLSDLLLFEWVEIEVFMMEDEEVLHKTEGAVETDALVLNPACAVQYFQYPVYAKRAAEITPADAAHYFMLTHRNPETGNVAFLEIAPMFARMFEWLTEEAMSVDQLISRFTEESQLALAADSRINIVSFFKNCLSKRIILGFN
MGSDKIHHHHHHMAYRNGTYVAFHANGTNRPGGNSDIDYYNLLKAWVGKDDDHFTMNNSHDKASAVRDSSKKETLRASLLERLRNSKNMVLIIGDTTLLDDDWVPFEISSAVDTYEIPIIAVYTQYSTPIRNPAALRSRWPDALATRIDSQKAKVIHIPFKKAALNDAISQFSHNNMPKGPLSFYSDEAYESFGIDG
MGSDKIHHHHHHMCASVLSRCGVALSQIQPIRCHLCQQTPCLTQCAEHNDTLNQHAAEYVKLVLAIGHHEPLYVDAYYGPAQWQAEASMLPLPELASRCASLVNQLANAGKDLSCQFLRDRHGFLSKQLGAVAAYLKRLMGQEFSFDVESRLLYDTQAPKLNLSDFSEVLARIDSLLPGEGSLTKRFDTYRSQFIVPADRVPQVFTAAVEQARLLTKRHLALPEGEQFRVEFVKDQIWTAYNWYQGDYASLIQLNQDHPLHLDRALELASHEGYPGHHVFNLLQEHELVKGLGWWEYAIYPLYSPISFLSEGSANYGLSLLMTKEERIDFEQRVLMPMAGIAGDLQHYHEVMVTYKALANLDTLVCRQLIDGEIQADEAARLLVEFALYTPEKAAQRVRFYQANRSYVLNYHHGEASVGEYVTNQVRDNAQAWEVFAALLARPRAASGIIR
MGSDKIHHHHHHMCNYNQLFENIAELVMHHSPSGAEAEINQLLLQKFAALGVEVWSDRADNIIAKIPGKNSERAVAITAHKDEIGAIVKNIGDAGKVEVRKLGGAYPWVYGEGVVDLLGDNETISGILSFGSRHVSHESPQKVQQEDTAVKWENAWIETKRTTEELEIAGIRPGTRMVIGKHRKHPVKLQDHIASYTLDNKASVAILLALAQQLKQPAMDVYLVASAKEEVGAIGALFFTQNQQLDALIALEICPLSEEYPVKDSENPVLLIQDAYGIYDEGLNGELRQCAKQLNMPVQLTTLSGFGSDASIAMKFGHVGRAACLAFPTQNTHGYEIAHLGAISNCINLLKAFCETEF
MGSDKIHHHHHHMCRLSLLKSSHLFKEQLLAASYSIQCVSQIAILGAPLWNALMAGANRQDQNGPANPFCRYEYLHALELSGCVGEQTGWRPMHLVVSEAGQIGENNQASAQGGDRQIDPSKVLAVMPLYLKGHSYGEYVFDWAWAQAYERHGLEYYPKLVNAIPFTPVTGSRIGFRVDLSEAQKAGLIGKIGEHLDLLTKACSASSWHSLFLLESERQPLVSKGHLQRLGTQFHWFNRDYQSFDDFLSRLTSRRRKSILKERRAITKAGLKFHFIDGAEITEDELTHFVHCYQRTYYKRSGHQGYLNAAFFSAVVKNMADKVRLLMVERPQANKLEAQAGSDARSEVGSAQEIEPIAAALYFVGGDCLYGRYWGALEEIEGLHFETCYYQGIDYAIAQRLKKFDAGAQGEHKVLRGFEPIPTYSIHEILHGDFRRAIADFIEQEARAVKIYMNELEAILPFKREGD
MGSDKIHHHHHHMDDGTRLGQADHAAGPRPPGVIFTMRYPSDVGFVWKTIALHRDLIARAFGGEARCILAYPQLSPTSAYQPRWSTAIQADFYDYSAENRQRLERVITDEAIRLVVFMSAQPADVDLGFLRGLGLRTVTSENNSYDHSLRQPFMKRLAKALIRRVLKRQVFDLHIANSQAQYDFLRGFAQLPASRLRAVRNGVDTDHFQPGERTGACSTLGLDPDRLWIMAASQARPEKRLERVLEVIRAVKDARPALPIGFFFVGEGENLAEWRQIALGLPDAETYRFFGRQNDLRPYYQAASVFIHGAFRESFGLVIAEAMASGLPVVATHAHGPAEIIAEGETGRLVGRDDWEGLGKAVIEYLDDAELRRTHGLAGRARCVALFSITRQAQEFADLLRPFLKDGAGAPY
MGSDKIHHHHHHMDEALAHANGETPAVGDYMTRDVATVSADDTVSDVAARISESDHNGFPVTDGRHVEGFVSARDLLLADPDELLFKVMTEDLVVAHPEMDVTDAARVILRSGIQKLPVVDDAGNLVGIITNADVIRSQIERATPEKVGKLMRTLETIHGVSITEERRTVTISDVVPTQGKVYADELEGRRYELENGLAEPLVVIDNGSTGDDGSLLLADGHHRVMAAERAGVAEMDAYVIVLERAVDLGMARTARTEGLDSIADIDVVDYARHPLVETIERLQ
MGSDKIHHHHHHMDEQQQLANAYHSNKLSHAYLFEGDDAQTMKRVAIHFTKLILCNNSNQCELKVDTFNHPDFSYVSSDENTIKKEQIEQLVHHMNQLPIEGQYKVYIIEDFEKLTVQGENSILKFLEEPPDNTIAILLSTKPEQILDTIHSRCQHVYFKPIDKRQFIERLVEMSIARPVAEMLSTYTTQIEAASSLNEEFDLVTLRKSIIRWCQLILSNKAMALIGVIELLKQAKNRKLQLLTLSAVNGFFEDIMHAKIEMDNYYTFSDLTEEIENYANQLTFNQLILMYDQITEAHKKLNQNVNPTLVFEQIVIKGVI
MGSDKIHHHHHHMDGTRERPMRKIIAATFVSLDGVMQAPGGPEEDPVGGFKFGGWTFHYFDEVGGAAMDELFSKPFTLLLGRRTYDIFTAYWPYQKDPIADAFNPATKYVATHRPDTLTWQNTQWLGEDIVAALRRLSKQDGPDLLIQRSADLIQTLLANGLIDEIRLMIFPLLLGKGKRLFGDGAMPAAFKLVKSQTSSTGVIIATYERSGEIEVGSFVMGEPSVAELERRRNWK
MGSDKIHHHHHHMDHEQIESQPWPQEGLERVERCPICGEVDRALLHDGLTDKIFFCAPGRWSLYQCPTCGAAYLDPRPTPATIAMAYSDYYTHEEGDDAPKGRFAHLKRRLRNDYLNARYNADLQPAWKVGRWITPLLGRKRKQIDESVRHLPATGKPGVLVDIGCGNGQFLGVAMQLGWEAWGVDLDPKAVKTAQKTGATVIQGGFPDTGLPSAHFDIVTLSHVIEHVHDPLAALREAFRVLKPGGHLWLATPNMGSFGHVRFGADWRGLEPPRHLVLFNNNSLEIALDGAGFIDIKQKPCLAQAAWFYQSSLRISRCQDPYDASASGLPLTLWIAAKLVDFRVAVSPFRCESIVVTAKRPESD
MGSDKIHHHHHHMDIELREKIAGEITLSDSPAETIRKWREEFKVSQLELSNFLNQSPSVISDYETGRRKFPSIASVRKIVDALITIDERRGGYVIKKYKSGVPSDALIDIKDYDRDVPLEKAIRAMNGKNVSHVSVERNIRGYTIVDGVKAILAFSYYEYSKLYGWSSERAIFFTDVKFGRSPMIAIRVHPLKPAAVVYIQPDNVDDLAIKLADIENIPLLITEMSPEAVSHVMSQLR
MGSDKIHHHHHHMDIIEELRAYREKDIPYSRVLSSMCTVPHPVAVEAHRMFIETNLGDPGIFRGTVELEAKLMRLIGDILHCETPAGYICSGGTEANIQGIRAARNVQKKENPNIVIPKTAHFSFEKIGDILGVKIKRAGVDEEYKVDVGQVEDLMDENTVAIVGIAGTTELGQIDPIVELSKLAEERQVELHVDAAFGGLVIPFMDNPYPFDFQNRGVSSITIDPHKMGMATIPAGGIIFRNESYLRALEVETPYLTSKTQFTLTGTRPGTGVASAYAVLKSLGFEGMREVVKNCLKNTRILVEEMRDLGFEPVIEPVMNVVSFRTDEAERIKEELYRMRWVISTIREPKAIRFVVMPHVTEEVIKNFISDFRKVLRR
MGSDKIHHHHHHMDIKQLKFLIALDQTRHFGQAAALCHITQPTLSMRLRNLEDELDLVLVKRGQRFEGFTEAGERILAWARTLLAAHDGLQAEAASCRGQVVGSLRLGTVPLASFNPMHLLLPLREKYPELHFQLSSLSSEQVIDGLSRNQLDLGICYLDQVNTSFFEVIELGTTTMGLLHDTRHFQFTSDRLRWDELGDIPLGLLSKGMHYRQSLDLSFRSRGLEPNAVLESDSSFQLIQAINTGICCAIMPLDCGLEDLSEHLRIVPVADAAIHSPVGLLLRRSEPRSAIAEQCFAEARGLFQAS
MGSDKIHHHHHHMDIQNMPREQLGVCAEGNLHSVYLMFNANDNVESQLRPCIANVAQYIYELTDQYSDSAFNGFVAIGANYWDSLYPESRPEMLKPFPAMQEGNREAPAIEYDLFVHLRCDRYDILHLVANEISQMFEDLVELVEEERGFRFMDSRDLTGFVDGTENPKGRHRQEVALVGSEDPEFKGGSYIHVQKYAHNLSKWHRLPLKKQEDIIGRTKQDNIEYESEDKPLTSHIKRVNLKDENGKSIEILRQSMPYGSLKEQGLMFISTCRTPDHFEKMLHSMVFGDGAGNHDHLMHFTSALTGSSFFAPSLDFLMQFDN
